# Assay: soluble on expression in E. coli; label from the status in PepcDB or PDB records
row,Sequence,soluble on expression in E. coli
1,MTKSLPGVADLRLGANHPRMWTRRVQGTVVNVGVKVLPWIPTPAKRILSAGRSVIIDGNTLDPTLQLMLSTSRIFGVDGLAVDDDIVASRAHMRAICEAMPGPQIHVDVTDLSIPGPAGEIPARHYRPSGGGATPLLVFYHGGGWTLGDLDTHDALCRLTCRDADIQVLSIDYRLAPEHPAPAAVEDAYAAFVWAHEHASDEFGALPGRVAVGGDSAGGNLSAVVCQLARDKARYEGGPTPVLQWLLYPRTDFTAQTRSMGLFGNGFLLTKRDIDWFHTQYLRDSDVDPADPRLSPLLAESLSGLAPALIAVAGFDPLRDEGESYAKALRAAGTAVDLRYLGSLTHGFLNLFQLGGGSAAGTNELISALRAHLSRV,soluble
2,GSPGISGGGGGILDMADDDVLFEDVYELCEVIGKGAFSVVRRCINRETGQQFAVKIVDVAKFTSSPGLSTEDLKREASICHMLKHPHIVELLETYSSDGMLYMVFEFMDGADLCFEIVKRADAGFVYSEAVASHYMRQILEALRYCHDNNIIHRDVKPENVLLASKENSAPVKLGDFGVAIQLGESGLVAGGRVGTPHFMAPEVVKREPYGKPVDVWGCGVILFILLSGCLPFYGTKERLFEGIIKGKYKMNPRQWSHISESAKDLVRRMLMLDPAERITVYEALNHPWLKERDRYAYKIHLPETVEQLRKFNARRKLKGAVLAAVSSHKFNSFYGDPPEELPDFSEDPTS,soluble
3,GPGSMLVPGYGSHLLRFGSTWVYITRAEDPSKQKAAAANRVDRENDKLTLTFFTRRRAVVQQFMKHVQESWRANVRNTVHIYLSEGYGPRWHLLSERIRRPLSTLYLPADTKAVVEEARLFLRLKDTYAALGIPWRRGYLLEGPPGTGKTSFVMALAGELGLPVHILSLRSANMDDDALLSLTSSLPRRSILLIEDLENVLKTPPGAGRSALSSGASDTAAVAAAETSAASPASPYSTDIGGGPRSAMSLSALLNALDGVSSSEGRLLLITTNDTSRIPFAEVLLRPGRVDRRIRFQPLHVEQLREMEASFQQALQASPCSAVENPRLPSARPSAHEDDRSVACTPAQYQQRLLDAVYASLTSRPRAESK,not soluble
4,MKKVVAVVKLQLPAGKATPAPPVGPALGQHGANIMEFVKAFNAATANMGDAIVPVEITIYADRSFTFVTKTPPASYLIRKAAGLEKGAHKPGREKVGRITWEQVLEIAKQKMPDLNTTDLEAAARMIAGSARSMGVEVVGAPEVKDA,soluble
5,ISNKHFEQAIERVVAGMEKKTQVLQKEEKKTVAYHEAGHAIAGWFLQHADPLLKVSIIPRGKGLGYAQYLPKEQYLYSKDQLLDRMCMTLGGRVAEEIFFGRITTGAQDDLQKVTQMAYSQVVKFGMSEKVGPLSFETPAPGEMAFDKPYSEATAQLIDQEQFADLPEILDSGNLPICRKFSIPAICRFAGNFQFRQFANLPNCRKFSIPTICQFAGNFNFQKIADLPEKIVRDLVMNALRRTRDLLLEKRSDIERVALRLLEKEILNREDMIEL,not soluble
6,MHHHHHHSSGVDLGTENLYFQSMASGANFEYIIAEKRGKNNTVGLIQLNRPKALNALCDGLIDELNQALKIFEEDPAVGAIVLTGGDKAFAAGADIKEMQNLSFQDCYSSKFLKHWDHLTQVKKPVIAAVNGYAFGGGCELAMMCDIIYAGEKAQFAQPEILIGTIPGAGGTQRLTRAVGKSLAMEMVLTGDRISAQDAKQAGLVSKICPVETLVEEAIQCAEKIASNSKIVVAMAKESVNAAFEMTLTEGSKLEKKLFYSTFATDDRKEGMTAFVEKRKANFKDQ,soluble
7,MPFRTIARLNPAKPKAGEEFRLQVVAQHPNEPGTRRDAEGKLIPAKYINLVEVYFEGEKVAEARPGPSTSANPLYAFKFKAEKAGTFTIKLKDTDGDTGEASVKLELV,soluble
8,MSISDTVKRAREAFNSGKTRSLQFRIQQLEALQRMINENLKSISGALASDLGKNEWTSYYEEVAHVLEELDTTIKELPDWAEDEPVAKTRQTQQDDLYIHSEPLGVVLVIGAWNYPFNLTIQPMVGAVAAGNAVILKPSEVSGHMADLLATLIPQYMDQNLYLVVKGGVPETTELLKERFDHIMYTGSTAVGKIVMAAAAKHLTPVTLELGGKSPCYVDKDCDLDVACRRIAWGKFMNSGQTCVAPDYILCDPSIQNQIVEKLKKSLKDFYGEDAKQSRDYGRIINDRHFQRVKGLIDNQKVAHGGTWDQSSRYIAPTILVDVDPQSPVMQEEIFGPVMPIVCVRSLEEAIQFINQREKPLALYVFSNNEKVIKKMIAETSSGGVTANDVIVHITVPTLPFGGVGNSGMGAYHGKKSFETFSHRRSCLVKSLLNEEAHKARYPPSPAKMPRH,soluble
9,MGSDKIHHHHHHMPINSFENYPMTWKPKLDNRKPPIYKTLAMLLEEDIKRGNLNPGDKLPPQRELADFLDLNLSTITRAFKLCEEKGLICAKVGKGTFISSDVNVSNTLLYQTESKDIIELGTVHPPYEQNTYIIDFIKNVLKQPEMDRFLQYMSPSGTYMQKKSIAKWIERNNVYTSEENILLSTGGQNAICATLLGLFKAGDRIATDSLSFSGIKSIAKMIGIQLVPIPQENNEISIEYLESYCKNENIKGIYLIPDYHNPTTHTMSDLSRKKIAKIAKQYNIIIIEDAINSIFRDGIQTPIFSLASDNTIYIFSTSKFLCAGLRVAFVVAPKRYIENLENALYNMNLMVSPFTAEIVHRLLYSPIIDKIIEEKRDAIIERNEVADKVLSDYNLIGDKNCSFRWLLLPDELDGKSFEISAKNLGVQVYCAERFSVGNSTVPKAVRICVTAPKDVEELEKGLNIIKSLLKS,not soluble
10,MSEVTNELMKTIGGLAKNPNFYLMMGPHHRGQRGHHRGQARLMHLLEKYDGLSVGEIAEILDVRPSSVTSLVDKLEENDFVERIVDEIDKRITLIKLTKKGHAFLKNKKDEADDLSEEIFARLSEEEKDTLLRLLKRVSENLNDVDFGDYISKMVNDSIGRHFKFDDGDIHINI,not soluble
11,MPNVIGVQFQKAGKLEYYTPNDIQVDIDDWVVVESKRGIEIGIVKNPLMDIAEEDVVLPLKNIIRVADDKDIDKFNCNERDAENALILCKDIVREQGLDMRLVNCEYTLDKSKVIFNFTADDRIDFRKLVKILAQHLKTRIELRQIGVRDEAKLLGGIGPCGRSLCCSTFLGDFEPVSIKMAKDQNLSLNPTKISGACGRLMCCLKYENDYYEEVRAQLPDIGEAIETPDGNGKVVALNILDISMQVKLEGHEQPLEYKLEEIETMHLEHHHHHH,not soluble
12,MSEKIRVLLYYKYVSIENAQEYAAKHLEFCKSIGLKGRILIADEGINGTVSGDYETTQKYMDWVHSDERFADLWFKIDEENQQAFRKMFVRYKKEIVHLGLEDNNFDSDINPLETTGEYLNPKQFKEALLDEDTVVLDTRNDYEYDLGHFRGAIRPDIRNFRELPQWVRDNKDKFMEKRVVVYCTGGVRCEKFSGWMVREGFKDVGQLHGGIATYGKDPEVQGELWDGAMYVFDDRISVPINHVNPTVISKDYFDGTPCERYVNCANPFCNKQIFASEENETKYVRGCSPECRAHERNRYVQENGLSRQEWAERLEAIGESLPEFVGA,not soluble
13,GMSESNRQRATGLVQAYYEAFNRGDWDAMLAFLAEDVAHDLNQGPREIGRAAFASFLQRMNDSYREQLRDIVVTANDEGTRVGAEYVVHGVYHTTDEGLPDANGQTYVLPGGAFFDVRDGQITRVTNYYNLQEWIAQVSR,soluble
14,MGSDKIHHHHHHMILLVGGEKGGAGKSCLAQNIAVHITQKFNANVLMVDCDPQRTTSDWIQARNEDASLPAINCIQLYGKIRNDLLGLDQRFDYVIVDCGGQDNLAMRAAMSVATYVVLPLRPKRRDLKTLPHMEDMLSTCKMVNPKMVATVVMTQCPALPSQYKRILEAKEVVESFGLRVLDAVTFSRNVYDDSEEQGSSVIEIEPDGKAAAEIRAIADELFAIPPENSYELN,not soluble
15,MTGRLQNKVIVITGASSGIGEQVAMQVAEQGATPVLMARTEEKLKALADKIKETYNTPCYYYVLDVSEETEVQSVFSKVLQEVGRIDILVNNAGFGIFKTFEDASMDEVKDMFQVNVFGLVACTKAVLPYMVKRNEGHIINIASLAGKIATPKSSAYAATKHAVLGFTNSLRMELSSTNVFVTAINPGPIDTNFFEIADQSGTYVKNMGRYMLKPTYVAEQIVKSMQTKKREVNLPKWMGIGPKLYALFPGLFERVAGKSLSKK,not soluble
16,MDDQGGTRPDLLSLKPTAVPRLPLVLLARSRLVAKLDDTADTVLICAPAGYGKTLLLSQWLEDQAHKVAWLSPNQHNREALWPAMLQALRRSPAIPPGALRQFSGDEEDAVEVLGDLAQELASTGTSVRLVIDGVDGFSSDERERWIPALLNQSGPPIQLALVARDSTAVDAGPARLSGRIVELRSSDLAFSLEEINVLAAKTTTL,not soluble
17,MVKKEFQLTHIFKNVSKLKVGKFAWTPMKEHFNVSWQIAITRTHFRNEEKMEIQVGCQKLTKDDVPAGVEGEFTIKLTNSSGISTSKSSRLKLVKNGGLGFLKIVWKVMQDEYLIDDSIIIEATVKITKMTGISKKPLKCFDQSKEKFSDVILAVGDQKFFVLRKFLASHSTFFESRFLGNFDEADKSEVTLRDIDSADFQNLLEVLYGEPAIDDDTVDGILHLAHMYDIPLPIRKCEEFLIEVSEKSMKDQLVLAKQYQLEKLKVKKKT,not soluble
18,MSTTRKLILANIHGVDKPGVTAELTAILAKHNAFILDIGQADIHNNLSLGILFQTDESHSGSILKDLLFKSYELDVTVRFEPITEEAYSEWVGMQGRNRYIITVVARKITAEMIAGIARSSAEQGLNIDDIKRLTGRIPLNETDRSPKASVEFSMRGTPTDIEKLQRNFMEMASQLNMDISFQRESMFR,not soluble
19,MKFTWIALPGVLLLSACSSSQPNAPRPPRIGMPNPAAVYCEQQGGTLMPVQTPQGVRSDCKLPNGEIIDEWTLWRREHPDTKK,not soluble
20,MGSDKIHHHHHHADVRMPLIFGDHMVLQQDTKIAIFGWADAGETVEVVFAGQKVKTTADTDGTWRVNLKPIKTKKEGQTLTIAGKNKLVYSDVLVGDVWVASGQSNMEWGIKVRKEYADDISASEDPLLRLFFVPKNTSLEPLTDIEVPQGTSNPERAARWVLCTPEMLAKINGQGFSATAYYFARDMRAANGRPLGVIQSAWGGTRAEAWTSLSGLKQEPALAHYVAAYEKNVKDNPEILATYPQKQKEFDEAVREWDKTVGKEWNQAQKEWAIAVQAAQAAGKPAPPKPQPSVPRPPNPRKPNGGNNGPSNLFNAMISPLIPLSIKGVIWYQGEFNSGGSGKEYATLFSRMITDWREKWGIGDFPFVYVQLPNFEPVDPEPSVEGNGWRWVREGQLKALNLPNTAMAVTIDVGDPFDLHPVDKYDVGHRLALAARKLAYGEKIVGMGPLYKKMSVKGNKIILEFTNQGKKLVMGTSPYIPAGKPPHPKPTKLTGFGIAGADRKFVWADAVIEGNKVIVSSSEVAVPLAVRYGFSNSPRCNLYNEKGLPASPFRTDSWDK,not soluble
21,PVYMVYVSQDRLTPSAKHAVAKAITDAHRGLTGTQHFLAQVNFNEQPAGNVFLGGVQQGGDTIFVHGLHREGRSADLKGQLAQRIVDDVSVAAEIDRKHIWVYFGEMPAQQMVEYGRFLPQPGHEGEWFDNLSSDERAFMETNVDVSRT,soluble
